By Kd is commonly meant the concentration at which binding is half-saturated. High values mean a looser complex, low ones a tighter complex.

The assay addresses AMdnB (Anabaena sp. PCC 7120). Briefly: ITC. (Isothermal titration calorimetry measures the heat released or taken up as one component is titrated into another.)

B1: AMdnA_(1–24) peptide (truncated AMdnA LP) (peptide)
peptide: MPENRQEDLNAQAVPFFARFLEGQ
Turning to B1, the Kd stood at 12.3 µM.

(Values after article PMC8816810.)
